This note sets out measurements from publication PMC5893371 (Nature medicine, 2018).

Read-outs that look alike come from different tables or passages of the source. No end group written: not given here.

The target of assay [1] is T1, biotinylated peptide 21 (Plasmodium falciparum, also: biotin, position not given here).
T1 chain: NPDPNANPNVDPNAN
Put plainly: BLI.

Assay [2] addresses T2, PfCSP peptide 25 (Plasmodium falciparum, UniProt Q7K740, position 102 (from Pro to Val)).
T2 chain: NVDPNANPNVDPNAN
Put plainly: ELISA.

Assay [3] has as its target recombinant PfCSP (rPfCSP), Plasmodium falciparum circumsporozoite protein residues 21-375 (Plasmodium falciparum 3D7 (clone of …, UniProt Q7K740)). Briefly: ITC.
The target in assay [4] is T3, PfCSP peptide 20 (Plasmodium falciparum).
T3 chain: PADGNPDPNANPNVD
Put plainly: crystal structure.

The target of assay [5] is T2, PfCSP peptide 25. Put plainly: crystal structure.
Assay [6] addresses T3, PfCSP peptide 20. Put plainly: crystal structure.
Assay [7] addresses T2, PfCSP peptide 25. Put plainly: crystal structure.

B1: mAb CIS43 (antibody, V domains shown)
VH: QVQLVQSGAEVKKPGASVKVSCKASGYTFTSYAIHWVRQAPGQRLEWMGWIKAGNGNTRYSQKFQDRVTITRDTSTTTAYMELSSLRSEDTAVYYCALLTVLTPDDAFDIWGQGTMVTVSS
VL: not shown
For B1, the Kd in assay [1] was < 0.001 nM. In addition, the binding result in assay [2] is “binds”. Moreover, in assay [3], the “KD of the first binding event” value was found to be 7.9 nM and the “KD of the second binding event” value was determined as 42 nM.

B2: CIS43 Fab (Fab, V domains shown)
VH: QVQLVQSGAEVKKPGASVKVSCKASGYTFTSYAIHWVRQAPGQRLEWMGWIKAGNGNTRYSQKFQDRVTITRDTSTTTAYMELSSLRSEDTAVYYCALLTVLTPDDAFDIWGQGTMVTVSS
VL: not shown
As to B2, in assay [4], the binding result is “binds”. The binding result in assay [5] is recorded as “binds”. Also, in assay [3], the “KD of the first binding event” value turned out to be 16 nM and the “KD of the second binding event” value was 250 nM.

B3: mAb CIS42 (antibody, V domains shown)
VH: QVQLVQSGSELKKPGASVKVSCKTSGYTFTTYAMNWVRQAPGQGLEWMGWINTNTGNPTYAPGFTGRFVFSFDTSVSTAYLQISSLKAEDTAVYYCARVYSYGVPFDYWGQGTLVTVSS
VL: QSVLTQPASVSGSPGQSITISCTATSSNVGSFNLVSWYQHHPGKAPKLIIHEVSKRPSGASNRFSGSKSGNTASLTISGLQAEDEADYYCCSYVGSDTWVFGGGTKLTV
In the case of B3, in assay [3], the Kd turned out to be 51 nM and the “stoichiometry N” value is 7.

B4: CIS42 Fab (Fab, V domains shown)
VH: QVQLVQSGSELKKPGASVKVSCKTSGYTFTTYAMNWVRQAPGQGLEWMGWINTNTGNPTYAPGFTGRFVFSFDTSVSTAYLQISSLKAEDTAVYYCARVYSYGVPFDYWGQGTLVTVSS
VL: QSVLTQPASVSGSPGQSITISCTATSSNVGSFNLVSWYQHHPGKAPKLIIHEVSKRPSGASNRFSGSKSGNTASLTISGLQAEDEADYYCCSYVGSDTWVFGGGTKLTV
In the case of B4, the binding result in assay [6] and in assay [7] was “binds” each time.
